Results published in US6864054 (INSTITUTE OF MOLECULAR AND CELL BIOLOGY, dated 2005).

B3: MBP-CBP (residues 1808-1852) fusion protein (other)
chain: GCKRKTNGGCPVCKQLIALCCYHAKHCQENKCPVPFCLNIKHKLR
notes: Bacterially expressed
B10: GST-16E6 (other)
chain: MFQDPQERPRKLPQLCTELQTTIHDIILECVYCKQQLLRREVYDFAFRDLCIVYRDGNPYAVCDKCLKFYSKYSEYRHYCYSLYGTTLEQQYNKPLCDLLIRCINCQKPLCPEEKQRHLDKKQRFHNIRGRWTGRCMSCCRSSRTRRETQL

How the values were obtained:
[1] = molecular target: T1, in vitro translated 35S-labeled CBP (1621-1877) (UniProt P45481 1621-1877); assay: GST-E6 micro-affinity column, IVT CBP II
T1 construct: also called in vitro translated CBP II
T1 sequence (looked up): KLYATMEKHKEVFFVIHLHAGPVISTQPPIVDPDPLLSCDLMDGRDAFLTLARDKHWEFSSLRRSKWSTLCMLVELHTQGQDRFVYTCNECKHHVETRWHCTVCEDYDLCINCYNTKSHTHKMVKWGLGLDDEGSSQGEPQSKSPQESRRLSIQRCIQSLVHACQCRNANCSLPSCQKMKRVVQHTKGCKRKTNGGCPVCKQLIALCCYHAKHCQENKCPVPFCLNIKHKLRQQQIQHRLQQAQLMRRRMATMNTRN

[2] = molecular target: T1, in vitro translated 35S-labeled CBP …; assay: GST-E6 fragment micro-affinity column
GST-16E6 = molecular target: B10; assay: GST micro-affinity column, purified recombinant proteins, western blot
[3] = molecular target: T2, GST-CBP fusion protein (CBP residues not stated) (UniProt P45481 1621-1877); assay: GST-CBP micro-affinity column, IVT E6
T2 sequence: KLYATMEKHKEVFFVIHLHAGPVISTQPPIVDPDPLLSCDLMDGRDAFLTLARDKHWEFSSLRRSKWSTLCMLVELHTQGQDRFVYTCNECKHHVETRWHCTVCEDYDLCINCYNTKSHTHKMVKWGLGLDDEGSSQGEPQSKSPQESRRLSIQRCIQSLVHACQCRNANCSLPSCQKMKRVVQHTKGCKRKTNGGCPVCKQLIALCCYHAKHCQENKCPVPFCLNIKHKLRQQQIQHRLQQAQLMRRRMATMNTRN

GST-E6AP = molecular target: T3, GST-E6AP (UniProt Q05086 24-875); assay: GST-E6AP micro-affinity column, IVT E6
T3 sequence: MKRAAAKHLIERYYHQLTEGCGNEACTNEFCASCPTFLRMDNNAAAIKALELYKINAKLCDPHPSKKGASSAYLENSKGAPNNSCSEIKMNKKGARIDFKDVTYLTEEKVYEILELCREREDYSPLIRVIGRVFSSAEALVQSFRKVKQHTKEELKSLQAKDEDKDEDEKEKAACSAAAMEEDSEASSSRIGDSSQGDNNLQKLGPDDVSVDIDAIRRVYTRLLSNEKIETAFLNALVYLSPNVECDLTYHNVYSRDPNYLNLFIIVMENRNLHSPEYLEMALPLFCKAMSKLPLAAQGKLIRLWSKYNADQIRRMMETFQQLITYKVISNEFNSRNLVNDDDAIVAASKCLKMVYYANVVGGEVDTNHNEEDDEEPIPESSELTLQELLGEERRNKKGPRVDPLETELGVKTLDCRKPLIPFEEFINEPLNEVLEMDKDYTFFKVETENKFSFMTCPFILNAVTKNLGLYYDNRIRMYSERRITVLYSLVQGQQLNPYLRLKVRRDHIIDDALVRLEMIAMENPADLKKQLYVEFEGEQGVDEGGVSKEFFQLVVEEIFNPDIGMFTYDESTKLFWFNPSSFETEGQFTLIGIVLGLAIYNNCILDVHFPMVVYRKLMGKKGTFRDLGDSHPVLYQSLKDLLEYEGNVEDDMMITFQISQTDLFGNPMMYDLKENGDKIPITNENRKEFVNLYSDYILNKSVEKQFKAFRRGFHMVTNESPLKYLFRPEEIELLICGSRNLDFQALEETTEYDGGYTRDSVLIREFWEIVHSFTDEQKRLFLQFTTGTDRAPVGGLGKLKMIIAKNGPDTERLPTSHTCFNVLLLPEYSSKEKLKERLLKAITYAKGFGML

[4] = molecular target: T4, in vitro translated radiolabeled TFIIB (UniProt Q00403 1-316); assay: GST micro-column pull-down, IVT protein
T4 sequence (looked up): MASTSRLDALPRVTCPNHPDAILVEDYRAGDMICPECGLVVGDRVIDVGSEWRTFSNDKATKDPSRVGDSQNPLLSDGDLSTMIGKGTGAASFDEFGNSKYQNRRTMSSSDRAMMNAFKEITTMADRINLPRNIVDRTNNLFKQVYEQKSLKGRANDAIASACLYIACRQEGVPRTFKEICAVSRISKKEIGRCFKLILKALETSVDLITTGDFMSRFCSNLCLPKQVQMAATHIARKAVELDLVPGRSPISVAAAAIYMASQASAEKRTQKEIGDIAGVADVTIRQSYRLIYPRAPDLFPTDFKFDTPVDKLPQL

[5] = molecular target: in vitro translated 35S-methionine labelled p53 (wild type) (UniProt P04637 1-393); assay: GST micro-column pull-down, IVT protein
Chain of in vitro translated 35S-methionine labelled p53 (wild type) (P04637 whole entry, the tested form may be a part): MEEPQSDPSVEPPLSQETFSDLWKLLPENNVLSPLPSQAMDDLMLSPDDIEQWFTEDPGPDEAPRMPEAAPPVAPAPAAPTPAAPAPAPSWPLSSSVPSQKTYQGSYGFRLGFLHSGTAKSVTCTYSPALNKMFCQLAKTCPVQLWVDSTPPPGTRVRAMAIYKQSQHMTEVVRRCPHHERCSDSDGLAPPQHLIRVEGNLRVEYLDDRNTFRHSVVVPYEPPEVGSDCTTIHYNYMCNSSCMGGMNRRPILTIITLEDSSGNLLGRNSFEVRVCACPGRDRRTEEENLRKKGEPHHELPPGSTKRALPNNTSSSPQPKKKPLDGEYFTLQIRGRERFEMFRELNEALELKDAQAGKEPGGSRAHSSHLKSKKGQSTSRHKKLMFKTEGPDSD

[6] = molecular target: T5, GST-CBP II (residues 1621-1877) (UniProt P45481 1621-1877); assay: GST micro-affinity column, IVT E6
T5 construct: also called GST-CBP II domain
T5 sequence: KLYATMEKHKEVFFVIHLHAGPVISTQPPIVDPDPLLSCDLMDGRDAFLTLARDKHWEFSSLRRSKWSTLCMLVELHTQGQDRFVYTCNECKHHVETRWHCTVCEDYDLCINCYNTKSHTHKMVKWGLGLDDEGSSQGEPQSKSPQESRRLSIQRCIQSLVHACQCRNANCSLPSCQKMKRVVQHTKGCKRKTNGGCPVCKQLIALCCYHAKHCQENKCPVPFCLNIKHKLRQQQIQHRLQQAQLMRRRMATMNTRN

[7] = molecular target: T6, GST-CBP I (residues 461-662) (UniProt P45481 461-662); assay: GST micro-affinity column, IVT radiolabelled E6
T6 construct: range 461-662; also called GST-CBP I (461-662)
T6 sequence: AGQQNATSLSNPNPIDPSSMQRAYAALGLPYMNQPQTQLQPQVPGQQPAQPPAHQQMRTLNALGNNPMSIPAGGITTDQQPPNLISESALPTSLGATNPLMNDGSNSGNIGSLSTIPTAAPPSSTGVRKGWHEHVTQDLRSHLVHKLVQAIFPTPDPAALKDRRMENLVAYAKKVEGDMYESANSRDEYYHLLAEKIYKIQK

GST (control) = molecular target: T7, GST (control) (UniProt P08515 1-218 = GST); assay: GST micro-affinity column, IVT radiolabelled E6
T7 construct: also called control GST column; GST alone
T7 sequence (P08515 whole entry): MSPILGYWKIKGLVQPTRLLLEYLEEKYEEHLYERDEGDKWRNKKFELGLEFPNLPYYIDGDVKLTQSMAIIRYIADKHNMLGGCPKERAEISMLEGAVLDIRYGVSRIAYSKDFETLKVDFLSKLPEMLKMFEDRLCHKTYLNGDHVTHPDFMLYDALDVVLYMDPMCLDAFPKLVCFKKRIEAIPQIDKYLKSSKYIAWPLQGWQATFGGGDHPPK

[8] = molecular target: B3; assay: MBP micro-affinity column, purified recombinant proteins, western blot

B1: GST-6E6 (other)
chain: MESANASTSATTIDQLCKTFNLSMHTLQINCVFCKNALTTAEIYSYAYKHLKVLFRGGYPYAACACCLEFHGKINQYRHFDYAGYATTVEEETKQDILDVLIRCYLCHKPLCEVEKVKHILTKARFIKLNCTWKGRCLHCWTTCMEDMLP
notes: mature
- binding result [1]: no binding

Binder: LIRCINCQKPLCPEEKQRHLDKKQRFHNIRGRWTGRCMSCCRSSRTRR (other) [GST-16E6 (amino acids 100-147)]
- binding result [2]: binds

B2: GST-16E6 N-terminal half (1-84) (other)
chain: MFQDPQERPRKLPQLCTELQTTIHDIILECVYCKQQLLRREVYDFAFRDLCIVYRDGNPYAVCDKCLKFYSKYSEYRHYCYSLY
- binding result [2]: no binding

Binder: B3
- binding result (GST-16E6): binds

B4: GST-16E6 C-terminal half (85-151) (other)
chain: GTTLEQQYNKPLCDLLIRCINCQKPLCPEEKQRHLDKKQRFHNIRGRWTGRCMSCCRSSRTRRETQL
- binding result [2]: binds

B5: GST-11E6 (other)
chain: MESKDASTSATSIDQLCKTFNLSLHTLQIQCVFCRNALTTAEIYAYAYKNLKVVWRDNFPFAACACCLELQGKINQYRHFNYAAYAPTVEEETNEDILKVLIRCYLCHKPLCEIEKLKHILGKARFIKLNNQWKGRCLHCWTTCMEDLLP
- binding result [1]: no binding

B6: in vitro translated HPV-11 E6 protein (other)
chain: MESKDASTSATSIDQLCKTFNLSLHTLQIQCVFCRNALTTAEIYAYAYKNLKVVWRDNFPFAACACCLELQGKINQYRHFNYAAYAPTVEEETNEDILKVLIRCYLCHKPLCEIEKLKHILGKARFIKLNNQWKGRCLHCWTTCMEDLLP
notes: mature
- binding result [3]: no binding
- binding result (GST-E6AP): no binding

Binder: GCKRKTNGGCPVCKQLIAL (other, UniProt P45481 1808-1826, looked up, not shown: a dimerising Fc or GST, also called CBP TRAM) [GST-CBP (1808-1826)]
- binding result [4]: binds

B7: GST-16E6 without C-terminal residues 148-151 (other)
chain: MFQDPQERPRKLPQLCTELQTTIHDIILECVYCKQQLLRREVYDFAFRDLCIVYRDGNPYAVCDKCLKFYSKYSEYRHYCYSLYGTTLEQQYNKPLCDLLIRCINCQKPLCPEEKQRHLDKKQRFHNIRGRWTGRCMSCCRSSRTRR
- binding result [2]: binds

B8: GST-Mdm2 (466-484) (other, human, UniProt Q00987 466-484, looked up, not shown: a dimerising Fc or GST)
chain: KKLKKRNKPCPVCRQPIQM
notes: also called wild type Mdm2 TRAM; Mdm2 TRAM
- binding result [5]: binds
- binding result [4]: binds

B9: in vitro translated and radiolabeled HPV-16 E6 (other)
chain: MFQDPQERPRKLPQLCTELQTTIHDIILECVYCKQQLLRREVYDFAFRDLCIVYRDGNPYAVCDKCLKFYSKYSEYRHYCYSLYGTTLEQQYNKPLCDLLIRCINCQKPLCPEEKQRHLDKKQRFHNIRGRWTGRCMSCCRSSRTRRETQL
- binding result [6]: binds
- binding result [7]: no binding
- binding result (GST (control)): no binding

Binder: B10
- binding result [1]: binds
- binding result [8]: binds

B11: in vitro translated HPV-16 E6 L50G protein (other)
chain: MFQDPQERPRKLPQLCTELQTTIHDIILECVYCKQQLLRREVYDFAFRDGCIVYRDGNPYAVCDKCLKFYSKYSEYRHYCYSLYGTTLEQQYNKPLCDLLIRCINCQKPLCPEEKQRHLDKKQRFHNIRGRWTGRCMSCCRSSRTRRETQL
- binding result (GST-E6AP): no binding
